Measured values taken from patent US20260258376.

Experiments:
Test in all cases: cell_activity
[1] = tested on: ZF-off targeting TAR1649 (second row, 10.70%) (synthetic); conditions: HLA-DR+ 10.70%; binding inferred from silencing
[2] = tested on: ZF-off targeting TAR1648 (third row, 4.51%) (synthetic); conditions: HLA-DR+ 4.51%; binding inferred from silencing
[3] = tested on: ZF-off targeting TAR1646 (table row SEQ 1547) (synthetic); conditions: HLA-DR+ 3.88%; binding inferred from silencing
[4] = tested on: ZF-off targeting TAR1655 (table row SEQ 1563) (synthetic); conditions: HLA-DR+ 15.20%; binding inferred from silencing
[5] = tested on: ZF-off targeting TAR1616 (table row SEQ 1557) (synthetic); conditions: HLA-DR+ 5.76%; binding inferred from silencing
[6] = tested on: ZF-off targeting TAR1604 (table row SEQ 1576) (synthetic); conditions: HLA-DR+ 12.84%; binding inferred from silencing
[7] = tested on: ZF-off targeting TAR1607 (table row SEQ 1538) (synthetic); conditions: HLA-DR+ 6.46%; binding inferred from silencing
[8] = tested on: ZF-off targeting TAR1615 (table row SEQ 1601) (synthetic); conditions: HLA-DR+ 4.50%; binding inferred from silencing
[9] = tested on: ZF-off targeting TAR1608 (table row SEQ 1608) (synthetic); conditions: HLA-DR+ 12.05%; binding inferred from silencing
[10] = tested on: ZF-off targeting TAR1612 (table row SEQ 1599) (synthetic); conditions: HLA-DR+ 12.50%; binding inferred from silencing
[11] = tested on: ZF-off targeting TAR1654 (table row SEQ 1572) (synthetic); conditions: HLA-DR+ in primary human T cells, 2.64%; binding inferred from silencing
[12] = tested on: ZF-off targeting TAR186 (table row SEQ 1553) (synthetic); conditions: HLA-DR+ 7.53%; binding inferred from silencing
[13] = tested on: ZF-off targeting TAR1650 (table row SEQ 1549) (synthetic); conditions: HLA-DR+ 13.65%; binding inferred from silencing
[14] = tested on: ZF-off targeting TAR1623 (table row SEQ 1605) (synthetic); conditions: HLA-DR+ 10.56%; binding inferred from silencing

## ACAGAAAGTCTGTTGGGGG (double strand) [TAR1649]
[1]
  activity (fraction of off-target control): 0.31

## GAGAGCCTCTGCTGGGGAC (double strand) [TAR1648]
[2]
  activity (fraction of off-target control): 0.13

## GTGGTATCAAGGAGGAAGT (double strand) [TAR1646]
[3]
  activity (fraction of off-target control): 0.11

## TGGGTATGGAGTGGAGTCT (double strand) [TAR1655]
[4]
  activity (fraction of off-target control): 0.43

## GAACAGATGGTGGGAAGAG (double strand) [TAR1616]
[5]
  activity (fraction of off-target control): 0.16

## GAGGCATCTGGGCGGAGGG (double strand) [TAR1604]
[6]
  activity (fraction of off-target control): 0.37

## AGGGCACGAGGAGGGGCTG (double strand) [TAR1607]
[7]
  activity (fraction of off-target control): 0.18

## GACGGGGGAACAGATGGTG (double strand) [TAR1615]
[8]
  activity (fraction of off-target control): 0.13

## GGAGCTGCTGCCTGGCTGG (double strand) [TAR1608]
[9]
  activity (fraction of off-target control): 0.34

## GCAGCTGGGGAGAGCTGGC (double strand) [TAR1612]
[10]
  activity (fraction of off-target control): 0.36

## GACAGGTAGGACCCAGCAG (double strand) [TAR1654]
[11]
  activity (fraction of off-target control): 0.08

## GAGGCTGTGTGCTTCTGAG (double strand) [TAR186]
[12]
  activity (fraction of off-target control): 0.22

## GAATTTGGTGAAGACAGAA (double strand) [TAR1650]
[13]
  activity (fraction of off-target control): 0.39

## GGAGGGGGAGAAGTCAGAG (double strand) [TAR1623]
[14]
  activity (fraction of off-target control): 0.3
